The chains are these.
B1: N-terminal WW1-WW2 FNBP4 (amino acids 214–629) (domain or fragment, UniProt Q8N3X1 214-629, looked up)
chain: GIEMGDWQEVWDENTGCYYYWNTQTNEVTWELPQYLATQVQGLQHYQPSSVPGAETSFVVNTDIYSKEKTISVSSSKSGPVIAKREVKKEVNEGIQALSNSEEEKKGVAASLLAPLLPEGIKEEEERWRRKVICKEEPVSEVKETSTTVEEATTIVKPQEIMLDNIEDPSQEDLCSVVQSGESEEEEEQDTLELELVLERKKAELRALEEGDGSVSGSSPRSDISQPASQDGMRRLMSKRGKWKMFVRATSPESTSRSSSKTGRDTPENGETAIGAENSEKIDENSDKEMEVEESPEKIKVQTTPKVEEEQDLKFQIGELANTLTSKFEFLGINRQSISNFHVLLLQTETRIADWREGALNGNYLKRKLQDAAEQLKQYEINATPKGWSCHWDRDHRRYFYVNEQSGESQWEFPDG

Experiment [1] deals with T1, C-terminal FH1-FH2 FMN1 (amino acids 870–1466) (mouse, UniProt Q05860 870-1466).
T1 sequence (looked up): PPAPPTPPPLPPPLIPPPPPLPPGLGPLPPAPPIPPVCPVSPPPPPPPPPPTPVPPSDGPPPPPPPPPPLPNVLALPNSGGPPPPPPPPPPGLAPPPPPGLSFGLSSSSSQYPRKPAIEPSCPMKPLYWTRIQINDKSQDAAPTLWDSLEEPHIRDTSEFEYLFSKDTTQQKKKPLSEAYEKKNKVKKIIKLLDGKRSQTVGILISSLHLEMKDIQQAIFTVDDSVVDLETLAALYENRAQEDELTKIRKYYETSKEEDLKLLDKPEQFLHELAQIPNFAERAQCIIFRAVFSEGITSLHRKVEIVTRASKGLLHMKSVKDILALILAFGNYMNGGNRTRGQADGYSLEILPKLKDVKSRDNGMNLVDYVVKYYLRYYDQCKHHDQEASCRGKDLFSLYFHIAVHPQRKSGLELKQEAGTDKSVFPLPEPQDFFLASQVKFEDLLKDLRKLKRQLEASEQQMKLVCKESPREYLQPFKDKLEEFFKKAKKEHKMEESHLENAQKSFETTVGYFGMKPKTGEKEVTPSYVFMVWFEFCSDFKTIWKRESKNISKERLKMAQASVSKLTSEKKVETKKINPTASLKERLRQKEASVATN
In words: SPR. For orientation: Surface plasmon resonance follows binding to a sensor surface in real time, without labels.

For experiment [2], the target named is B1. In words: SPR.

One may read the Kd as a measure of binding affinity in units of concentration. Higher therefore signals lower affinity. As a reminder, the koff is the rate constant with which the complex falls apart. Lower therefore signals a long-lived complex. One may read the kon as a measure of how fast the partners come together. A high value points to fast association. In experiment [1], B1 showed a Kd of 1.84 nM, a koff of 0.000571 s⁻¹ and a kon of 310000 M⁻¹ s⁻¹.

B2: WW1 FNBP4 (amino acids 214–430) (domain or fragment, UniProt Q8N3X1 214-430, looked up)
chain: GIEMGDWQEVWDENTGCYYYWNTQTNEVTWELPQYLATQVQGLQHYQPSSVPGAETSFVVNTDIYSKEKTISVSSSKSGPVIAKREVKKEVNEGIQALSNSEEEKKGVAASLLAPLLPEGIKEEEERWRRKVICKEEPVSEVKETSTTVEEATTIVKPQEIMLDNIEDPSQEDLCSVVQSGESEEEEEQDTLELELVLERKKAELRALEEGDGSVSG
For the molecule B2, in experiment [1], the Kd turned out to be 2 nM, the koff was determined as 0.00127 s⁻¹ and the kon came out at 637000 M⁻¹ s⁻¹.

B3: FH1 FMN1 (amino acids 870–970) (domain or fragment, mouse, UniProt Q05860 870-970, looked up)
chain: PPAPPTPPPLPPPLIPPPPPLPPGLGPLPPAPPIPPVCPVSPPPPPPPPPPTPVPPSDGPPPPPPPPPPLPNVLALPNSGGPPPPPPPPPPGLAPPPPPGL
In experiment [2], B3 yielded a Kd of 0.56 nM, a koff of 0.0107 s⁻¹ and a kon of 1.94e+07 M⁻¹ s⁻¹.

Source of the values: publication PMC10770428 (Current Research in Structural Biology, 2023).
